These results are taken from article PMC4102529, “FRET Based Quantification and Screening Technology Platform for the Interactions of Leukocyte Function-Associated Antigen-1 (LFA-1) with InterCellular Adhesion Molecule-1 (ICAM-1)” (PLoS ONE, 2014).

The assay concerns LFA-1 (αLβ2). The experiment in a line: Steady-state in-solution FRET binding assay (Alexa Fluor 488-LFA-1 donor / Alexa Fluor 555-D1-D2-Fc acceptor) to determine Kd. The arrangement: species or system human. As for the experimental part: In determining the equilibrium dissociation constant (Kd) between the interacting protein pairs, LFA-1 and D1-D2-Fc, from the FRET binding assay, several concentrations of the acceptor conjugate, Alexa Fluor 555-D1-D2-Fc, were added to a fixed concentration of the donor conjugate, Alexa Fluor 488-LFA-1. The donor conjugate concentration was kept constant at 100 nM while the acceptor conjugate concentration was varied from 0 upto 1.6 µM. These FRET mixtures, with different donor-to-acceptor ratios, were excited by 470 and 530 nm. […] The peak intensity at 570 nm has contributions from unquenched donor emissions, direct acceptor emission and the emission of acceptor due to FRET (FFRET). However, when the FRET mixture was excited with 530 nm, only a single peak corresponding to the direct emission of the acceptor (FA) was observed.
Thus, to obtain the absolute maximum FRET emission signal at 570 nm (FFRETmax), we need to quantify each contribution from the donor and acceptor emissions as well as the FRET emission signal (FFRET). […]
In general, the direct emission of Alexa Fluor 488-LFA-1 at 570 nm is expected to be proportional to its emission at 520 nm when excited at 470 nm. […] The calculated value of “b” was 0.101±0.008. […]

B1: D1-D2-Fc: chimeric molecule consisting of the amino-terminal first two Ig domains of human ICAM-1 (D1-D2) fused to IgG1 Fc region (protein)
chain: QTSVSPSKVILPRGGSVLVTCSTSCDQPKLLGIETPLPKKELLLPGNNRKVYELSNVQEDSQPMCYSNCPDGQSTAKTFLTVYWTPERVELAPLPSWQPVGKNLTLRCQVEGGAPRANLTVVLLRGEKELKREPAVGEPAEVTTTVLVRRDHHGANFSCRTELDLRPQGLELFENTSAPYQLQTFVLPATPPQLVSPRVLEVDTQGTVVCSLDGLFPVSEAQVHLALGDQRLNPTVTYGNDSFSAKASVSVTAEDEGTQRLTCAVILGNQSQETLQTVTIYSFPAPNVILTKPEVSEGTEVTVKCEAHPRAKVTLNGVPAQPLGPRAQLLLKATPEDNGRSFSCSATLEVAGQLIHKNQTRELRVLYGPRLDERDCPGNWTWPENSQQTPMCQAWGNPLPELKCLKDGTFPLPIGESVTVTRDLEGTYLCRARSTQGEVTRKVTVNVLSPRYEIVIITVVAAAVIMGTAGLSTYLYNRQRKIKKYRLQQAQKGTPMKPNTQATPP
modifications: Alexa Fluor 555 (succinimidyl ester) on amine groups (amine terminus, ε-amino groups of lysines), random; F/P molar ratio 3.14±0.27; left off: Fc (IgG1), end not stated, kept
notes: chimeric molecule consisting of the amino-terminal first two Ig domains of human ICAM-1 (D1-D2) fused to IgG1 Fc region
For the molecule B1, under “at 570 nm, 100 nM Alexa Fluor 488-LFA-1, Alexa Fluor 555-D1-D2-Fc 0 to 1.6 µM, fit of Eq. (6), adj. R-square = 0.9895”, the “maximum FRET emission signal (FFRETmax)” value was 6.33×10^3 RFU. Further, the Kd (steady-state FRET, 100 nM Alexa Fluor 488-LFA-1 fixed, Alexa Fluor 555-D1-D2-Fc 0 to 1.6 µM, PBS, pH 7.4, 1 mM EGTA, 2 mM Mg^2+, 50 µl, 96-well plate, excitation 470 nm, emission 520/570 nm, nonlinear fit Eq. (6), one-to-one, data points mean (rms) of 9 measurements, 3 samples, read-out: dissociation constant (Kd) of the LFA-1/D1-D2-Fc interaction) is 17.9 ± 1.34 nM.
